From patent publication US9487562B2, “Stabilized polypeptides as regulators of RAB GTPase function” (President and Fellows of Harvard College, priority 2011, dated 2016)
“Also recorded” adds a separate entry of the source. One block for each molecule: values may come before it. Bridge positions count the residues as written; N and C are the ends. Square brackets hold non-standard residues; d marks the D form. Ends that are not written are not given here. * marks the point of attachment. FITC = O=C1OC2(c3ccc(O)cc3Oc3cc(O)ccc32)c2ccc(NC(=S)*)cc21; Met(O) = CS(=O)CC[C@H](N)C(=O)O; S5 = C=CCCC[C@](C)(N)C(=O)O

Legend:
RAB11 [1] = biological target: RAB11 (UniProt P62491); assay: fluorescence polarization
RAB25 [2] = biological target: RAB25 (UniProt P57735); assay: fluorescence polarization
RAB11 [3] = biological target: T1, RAB11 (Homo sapiens, UniProt P62491); assay: Fluorescence polarization binding of FITC-FIP/FITC-RFP peptides to RAB11; conditions: for binding affinity to RAB11: FITC peptide 15 nM, fluorescence polarization; for binding to RAB11: in the presence and absence of GTP, FITC peptide
T1 construct: RAB11 (residues 1-175) was expressed with an N-terminal GST-tag with an internal thrombin cleavage site; GST (thrombin cleavage site between tag and RAB11) (N); made in house; host or cells: Escherichia coli BL21(DE3) pLysS
T1 sequence (P62491 1-175): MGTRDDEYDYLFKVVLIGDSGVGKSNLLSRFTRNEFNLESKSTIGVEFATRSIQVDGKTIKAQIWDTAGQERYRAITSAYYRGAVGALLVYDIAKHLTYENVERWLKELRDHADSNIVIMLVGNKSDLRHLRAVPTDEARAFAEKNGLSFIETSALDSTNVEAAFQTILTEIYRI
Procedure: Fluorescence polarization (FP) was used to measure FIP peptide binding to RAB11 and RAB25 proteins. […] This indicated specificity in the binding measurement, as this subtle change would be expected to perturb binding.
(§1) RAB11/25 protein binding assays were performed by incubating FITC-FIP or FITC-RFP (stapled FIP derivatives) peptides (15 nM) with three-fold dilutions of recombinantly-expressed, purified RAB11, RAB25 or a various epitope-tagged version of either in protein-binding buffer (25 mM Tris-HCl, pH 8.0, 150 mM NaCl, 1 mM EDTA, 1 mM DTT, 10 mM MgCl2, 10 mM GTP). Dilutions and incubations were made in 384-well, black flat-bottom plates (Corning) to a total volume of 40 μL and equilibrated for 60 minutes. Polarization was measured on a Spectramax-M5 multi-label plate reader with λex=485 nm and λem=525 nm. Polarization was calculated according to the standard equation: P=(V−H)/(V+H), where P=polarization, V=vertical emission intensity and H=horizontal emission intensity. Kd values were determined by fitting data to a variable-slope sigmoidal binding curve using Prizm 4 graphing software.
(§2) RAB11 and RAB25 proteins were expressed and purified in Escherichia coli strain BL21(DE3) pLysS (Stratagene) as epitope-tagged fusion proteins in various vectors (Novagen). RAB25 (residues E7-Q180) was expressed with an N-terminal GST- and hexahistidine tag with internal thrombin and TEV cleavage sites (GST-H6-RAB25) (SEQ ID NO: 86) in a pET41-1 vector (Novagen) or with an N-terminal hexahistidine tag alone with an internal thrombin cleavage site (H6-RAB25) (SEQ ID NO: 86) in a pET28 vector (Novagen). FIP3 protein (residues 649-756) was expressed with an N-terminal GST-tag with an internal TEV cleavage site (GST-FIP3) in a pGEX6p-1 vector (Novagen). RAB11 (residues 1-175) was expressed with an N-terminal GST-tag with an internal thrombin cleavage site in a pGEX5x-1 vector (Novagen). Transformed bacteria was grown at 37° C. until an OD600=0.8 was reached, at which point the culture was induced with 0.5 mM isopropyl β-D-1-thiogalactopyranoside (IPTG). Induced cells were grown at 30° C. for 6 hours, pelleted and lysed in binding buffer (25 mM Tris-HC;, pH 8.0, 150 mM NaCl, 1 mM EDTA, 1 mM DTT, 10 mM MgCl2, 10 mM GTP) supplemented with a complete protease inhibitor tablet (Roche) by sonication on ice. The lysate was centrifuged at 14,000 rpm to clear insoluble matter prior to loading onto Ni-NTA resin (Qiagen) for hexahistdine-tagged constructs or on GST-bind agarose resin (Biorad) for GST-tagged constructs. The protein-bound bead slurry was washed 4× with ˜20 mL of buffer and retained protein was eluted with either 250 mM imidazole or 20 mM glutathione in buffer for H6-(SEQ ID NO: 86) or GST-proteins, respectively. The eluent was concentrated using a 30 kD exclusion filter and purified by size-exclusion chromatography on a Superdex-75 Column (Amersham Pharmacia Biotech). Fractions containing purified protein were pooled, concentrated and dialyzed into binding buffer or other similar buffer for specific biochemical assays.

RAB25 [4] = biological target: T2, RAB25 (Homo sapiens, UniProt P57735); assay: Fluorescence polarization binding of FITC-FIP/FITC-RFP peptides to RAB25; conditions: FITC peptide 15 nM
T2 construct: RAB25 (residues E7-Q180) was expressed with an N-terminal GST- and hexahistidine tag; made in house; host or cells: Escherichia coli BL21(DE3) pLysS
T2 sequence (P57735 7-180): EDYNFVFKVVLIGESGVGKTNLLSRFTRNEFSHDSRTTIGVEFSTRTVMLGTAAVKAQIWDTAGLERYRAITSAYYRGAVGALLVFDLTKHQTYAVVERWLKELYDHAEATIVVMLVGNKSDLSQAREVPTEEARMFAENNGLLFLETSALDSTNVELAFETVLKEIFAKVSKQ
Procedure: as §1, §2

RAB25 [5] = assay: as above
Procedure: as §1, §2

[6] = Circular dichroism spectra / percent helicity; assay type: physicochemical; conditions: 20° C. in water, peptides at 50 μM
Procedure: We next investigated the structural stability of the RFPs by obtaining circular dichroism (CD) spectra for each peptide. All measurements were made at 20° C. in water with peptides at 50 μM. […] By comparison, stapled FIP peptides (RFPs) show helical CD spectra indicated by minima at approximately 208 and 222 nm (FIG. 11B).
A circular dichroism spectrometer (Jasco J-710, Japan) was used to determine the α-helical content of all peptides. Peptides were dissolved in water to a final concentration of 50 μM in a quartz cuvette with a path length of 1 cm. Absorbance values were taken at 1 nm intervals between 190 and 260 nm for buffer alone and for peptide solutions. The background (buffer) spectrum was subtracted from experimental spectra, which were subsequently subjected to baseline-normalization and curve-smoothing within the spectrometer software. Percent-helicity was calculated from the absorbance at 222 nm using helical models as previously reported in Chen Y H et al., Biochemistry, 13, 3350-9 (1974).

[7] = Peptide thermal stability by CD at 222 nm; assay type: physicochemical; conditions: CD at 222 nm over 10-90° C.
Procedure: Peptide thermal stability was measured by scanning the peptide CD at 222 nm over a temperature range (10-90° C.). A sigmoidal unfolding curve was apparent for helices of unmodified FIP peptides (FIP4) with a Tm of ˜34° C. (FIG. 12A).
Peptide thermal stability experiments were performed in a similar manner to circular dichroism experiments in Example 5. Peptide solutions were cooled to 10° C. in a temperature controlled CD-chamber and circular dichroism absorbance at 222 nm was measured at 1 degree intervals while the solution was heated to 90° C. 222 nm CD values were plotted as a function of temperature and fitted to a sigmoidal denaturation curve, with the half-maximal temperature representing the Tm.

RAB25 [8] = biological target: RAB25 (UniProt P57735); assay: ALPHAscreen competition
GST-H6-RAB25 = GST-H6-RAB25 (UniProt P57735); assay: AlphaScreen competition
RAB25 [9] = biological target: T3, RAB25 (UniProt P57735 7-180); assay: fluorescence polarization (FIG. 19B, RAB25); reference peptide not named
T3 construct: range 7-180; Target of the fluorescence polarization assays; also called H6-RAB25
T3 sequence (looked up): T2 sequence (P57735 7-180)
Procedure: as §1, with “MgCl_2,” for “MgCl2,”, “µL” for “μL”, “$\lambdaex$=485” for “λex=485”, “$\lambdaem$=525” for “λem=525”, “K_d” for “Kd”

GST-RAB11 = GST-RAB11 (UniProt P62491); assay: … titration (hook effect), approximately 10 nM GST-RAB11

Kd (RAB11 [1]): 1.7 µM | Kd (RAB25 [2]): > 5 µM
Molecule: unmodified FIP3 peptide

binding affinity to RAB11 (RAB11 [3]): little or no binding | binding affinity to RAB25 (RAB25 [4]): little or no binding
Molecule: FIP1: unmodified RAB family interacting protein 1 (class I) peptide (KKEFQVRELEDYIDNLLVRVMEETPNILRIPA) [reference compound]

binding affinity to RAB11 (RAB11 [3]): negligible affinity | binding affinity to RAB25 (RAB25 [4]): negligible affinity
Molecule: RFP31: triple-alanine mutant negative control, SEQ ID NO: 84 (RINFRLQNXIDRXAARIAETNPSILEVK; not fully specified; hydrocarbon staple)

binding affinity to RAB25 (RAB25 [4]): retained binding affinity
Molecule: RFP24: stapled FIP peptide containing an E-R mutation to increase overall charge, SEQ ID NO: 82 (RINFRLQN[S5]IDR[S5]IVRIFETNPSILRVK; staple 9-13; not fully specified (C-terminus))

binding affinity to RAB11 (RAB11 [3]): micromolar | binding affinity to RAB25 (RAB25 [4]): micromolar | relative affinity RAB11 versus RAB25 (selectivity) (RAB25 [5]): tighter binding to RAB11 than RAB25
Molecule: FIP4: wild-type unmodified FIP4 peptide (EQEEINFRLRQYMDKIILAILDHNPSILEIKH) [reference compound]
CD curve shape / secondary structure [6]: partially unfolded/helical structure | Tm [7]: ~34 °C

Molecule: FITC-RFP1-Ox: chemical derivative of FITC-RFP1 containing an oxidized methionine at a critical hydrophobic interaction site with RAB11 ({FITC}-KQEEINFRLQDYIDRIIVAI[Met(O)]ETNPSILEVK)
binding to RAB11 (RAB11 [3]): decreased binding; also recorded: dose-dependent binding

IC50 (RAB25 [8]): 10.1 µM | IC50 (GST-H6-RAB25): 10 µM
Molecule: FIP3 protein (from UniProt O75154 649-756)

binding affinity to RAB11 (RAB11 [3]): little or no binding | binding affinity to RAB25 (RAB25 [4]): little or no binding
Molecule: FIP2: unmodified RAB family interacting protein 2 peptide (ERDTHIRELEDYIDNLLVRVMEETPSILRVPY) [reference compound]

IC50 (RAB25 [8]): 14.1 µM
Molecule: FIP3(726-56)

binding to RAB11 (RAB11 [3]): dose-dependent binding
Molecule: FITC-RFP1: unmodified FIP3 peptide conjugated to FITC ({FITC}-KQEEINFRLQDYIDRIIVAIMETNPSILEVK)

bias for RAB11 versus RAB25 (RAB11 [3]; ratio of affinities RAB11 vs RAB25): equivalent affinity
Molecule: RFP17: stapled FIP peptide of second design set, SEQ ID NO: 78 (FIG. 7, top to bottom) (RINFRLQN[S5]IDR[S5]IVRIFETNPSILEVK; staple 9-13; not fully specified (C-terminus))
Tm [7]: 54 °C

fold decrease in binding affinity (RAB25 [9]): ~100 fold
B1: RFP31 (peptide)
peptide: RINFRLQN[S5]IDR[S5]AARIAETNPSILEVK
modifications: staple 9-13; also: N-terminal cap differs by assay: FITC or diethyleneglycol-biotin
notes: Negative control in which the I/V/M contact residues are changed to alanine; also called triple-alanine mutant negative control

concentration of biotinylated peptide at maximum signal (GST-RAB11): 40 nM
Molecule: ERDTHIRELEDYIDNLLVRVMEETPSILRVPY (also: N-terminal FITC (FP) or biotin (ALPHASCREEN)) [unmodified FIP2 peptide]
